Reference: article PMC3858243

Test system: 30S ribosomal subunit (with S1)
Test: filter binding
Conditions: no initiator tRNA; Not given in the material for EMSA, SPR and filter binding (buffer with monovalent ions and MgCl2; RNA renatured 90°C 1 min, ice, then 25°C 30 min)

Substance | Kd [nM] | other results
rpsO mRNA | 1000 | –
rpsOSD mRNA | – | binding signal (fold higher affinity than WT rpsO): 5
sodB mRNA | 1000 | –
thrS mRNA | 1000 | –
thrSSD mRNA | – | binding signal (fold higher affinity than WT thrS): 5
